Assays:
Assay in all cases: ProtoArray, GST-treated control array;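 also: human protein microarray (about 9500 recombinant proteins) incubated overnight with GST alone plus SAM cofactor as the negative control for G9a SET domain methylation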
[1] = target: T1, LRRC20-leucine rich repeat containing 20 (LRRC20) (human, UniProt Q8TCA0 1-184, limits assumed)
T1 sequence (looked up): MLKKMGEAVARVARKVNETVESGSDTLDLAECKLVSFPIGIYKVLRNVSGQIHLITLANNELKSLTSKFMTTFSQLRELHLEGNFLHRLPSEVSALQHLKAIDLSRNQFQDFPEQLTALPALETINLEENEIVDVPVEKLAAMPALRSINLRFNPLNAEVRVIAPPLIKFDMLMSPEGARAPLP

[2] = target: DGKA-diacylglycerol kinase, alpha 80 kDa (DGKA) (human, UniProt P23743 1-735)
Sequence of DGKA-diacylglycerol kinase, alpha 80 kDa (DGKA) (P23743 whole entry): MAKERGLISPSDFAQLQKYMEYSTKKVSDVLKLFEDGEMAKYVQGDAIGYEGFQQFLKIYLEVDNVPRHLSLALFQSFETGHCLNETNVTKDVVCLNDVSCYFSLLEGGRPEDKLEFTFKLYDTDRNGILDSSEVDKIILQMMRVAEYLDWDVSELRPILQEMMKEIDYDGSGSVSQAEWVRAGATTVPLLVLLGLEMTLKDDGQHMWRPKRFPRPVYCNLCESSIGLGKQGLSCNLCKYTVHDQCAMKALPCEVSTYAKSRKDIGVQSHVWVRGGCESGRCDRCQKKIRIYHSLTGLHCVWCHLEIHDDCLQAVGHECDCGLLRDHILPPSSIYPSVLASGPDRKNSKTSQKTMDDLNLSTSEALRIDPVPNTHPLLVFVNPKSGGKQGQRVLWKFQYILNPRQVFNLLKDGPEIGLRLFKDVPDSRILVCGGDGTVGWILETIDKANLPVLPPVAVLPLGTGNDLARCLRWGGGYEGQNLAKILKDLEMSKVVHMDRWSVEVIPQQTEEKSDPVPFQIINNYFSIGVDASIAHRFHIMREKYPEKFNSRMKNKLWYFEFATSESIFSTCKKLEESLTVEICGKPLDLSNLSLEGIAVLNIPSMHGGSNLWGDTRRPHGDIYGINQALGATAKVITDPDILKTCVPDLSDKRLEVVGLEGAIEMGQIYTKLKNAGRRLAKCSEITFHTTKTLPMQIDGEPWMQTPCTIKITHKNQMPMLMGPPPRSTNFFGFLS

[3] = target: T2, C10orf58-chromosome 10 open reading frame 58 (C10orf58) (human, UniProt Q9BRX8 1-229, limits assumed)
T2 sequence (looked up): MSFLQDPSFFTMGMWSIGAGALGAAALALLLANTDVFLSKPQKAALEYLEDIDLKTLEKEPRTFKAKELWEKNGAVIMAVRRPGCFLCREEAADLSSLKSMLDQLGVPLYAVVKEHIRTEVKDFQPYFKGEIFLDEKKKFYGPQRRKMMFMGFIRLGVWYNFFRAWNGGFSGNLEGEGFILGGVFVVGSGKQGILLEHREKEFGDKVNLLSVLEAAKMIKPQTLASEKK

CTXN1-cortexin 1 (CTXN1) = target: T3, CTXN1-cortexin 1 (CTXN1) (human, UniProt P60606 1-82)
T3 sequence (looked up): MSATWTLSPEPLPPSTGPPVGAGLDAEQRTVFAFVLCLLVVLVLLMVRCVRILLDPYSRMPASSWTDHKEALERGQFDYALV

[4] = target: C10orf83-chromosome 10 open reading frame 83 (C10orf83) (human, UniProt Q8NDC4 1-146, limits assumed)
Sequence of C10orf83-chromosome 10 open reading frame 83 (C10orf83) (Q8NDC4 whole entry): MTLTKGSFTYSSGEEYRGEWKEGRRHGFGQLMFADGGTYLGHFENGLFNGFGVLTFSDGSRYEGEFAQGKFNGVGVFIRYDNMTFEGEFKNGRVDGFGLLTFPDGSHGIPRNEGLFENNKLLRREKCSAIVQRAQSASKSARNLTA

[5] = target: T4, C12orf62-chromosome 12 open reading frame 62 (C12orf62) (human, UniProt Q96I36 1-57)
T4 sequence (looked up): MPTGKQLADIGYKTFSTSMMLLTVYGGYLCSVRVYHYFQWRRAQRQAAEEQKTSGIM

[6] = target: T5, SH3YL1-SH3 domain containing, Ysc84-like 1 (S. cerevisiae) (SH3YL1) (human, UniProt Q96HL8 1-342, limits assumed)
T5 sequence (looked up): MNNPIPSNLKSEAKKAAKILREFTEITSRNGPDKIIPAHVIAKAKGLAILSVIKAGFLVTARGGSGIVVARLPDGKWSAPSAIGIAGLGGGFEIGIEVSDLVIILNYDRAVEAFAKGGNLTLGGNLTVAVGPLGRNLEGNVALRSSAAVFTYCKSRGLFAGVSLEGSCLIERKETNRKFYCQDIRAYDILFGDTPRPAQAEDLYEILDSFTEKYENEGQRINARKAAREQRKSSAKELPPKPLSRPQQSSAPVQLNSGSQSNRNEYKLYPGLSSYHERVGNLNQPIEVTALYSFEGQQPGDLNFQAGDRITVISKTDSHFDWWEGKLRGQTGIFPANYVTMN

[7] = target: T6, RASSF4-Ras association (RaIGDS/AF-6) domain family 4 (RASSF4) (human, UniProt Q9H2L5 1-321, limits assumed)
T6 sequence (looked up): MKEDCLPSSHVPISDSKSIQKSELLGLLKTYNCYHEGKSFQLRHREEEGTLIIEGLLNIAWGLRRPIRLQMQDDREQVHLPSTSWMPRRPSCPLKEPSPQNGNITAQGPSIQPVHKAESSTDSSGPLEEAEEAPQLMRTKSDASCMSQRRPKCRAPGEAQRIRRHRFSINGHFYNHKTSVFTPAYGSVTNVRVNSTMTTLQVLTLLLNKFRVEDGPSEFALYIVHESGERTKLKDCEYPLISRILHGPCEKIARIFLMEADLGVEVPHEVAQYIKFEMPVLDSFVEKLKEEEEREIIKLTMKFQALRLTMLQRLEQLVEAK

[8] = target: T7, SH3YL1-SH3 domain containing, Ysc84-like 1 (S. cerevisiae), mRNA (cDNA clone MGC:12275 IMAGE:3996120), … (human, UniProt Q96HL8 1-342, limits assumed)
T7 sequence (looked up): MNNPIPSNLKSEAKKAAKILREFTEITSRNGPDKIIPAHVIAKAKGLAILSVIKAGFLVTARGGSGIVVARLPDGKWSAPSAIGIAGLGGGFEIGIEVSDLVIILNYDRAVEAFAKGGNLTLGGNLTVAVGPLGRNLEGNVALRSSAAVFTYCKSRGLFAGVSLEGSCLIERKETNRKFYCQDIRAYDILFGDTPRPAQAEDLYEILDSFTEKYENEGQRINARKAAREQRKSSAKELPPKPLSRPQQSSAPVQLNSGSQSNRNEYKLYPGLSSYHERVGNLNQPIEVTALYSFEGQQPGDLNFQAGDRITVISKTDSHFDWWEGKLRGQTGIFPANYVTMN

[9] = target: T8, GHRL-ghrelin/obestatin preprohormone (GHRL) (human, UniProt Q9UBU3 1-117, limits assumed)
T8 sequence (looked up): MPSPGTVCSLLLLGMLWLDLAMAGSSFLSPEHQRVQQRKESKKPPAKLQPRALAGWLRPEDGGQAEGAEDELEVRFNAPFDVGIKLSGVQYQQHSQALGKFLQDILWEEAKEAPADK

[10] = target: T9, CAB39L-Calcium-binding protein 39-like (human, UniProt Q9H9S4 1-337)
T9 sequence (looked up): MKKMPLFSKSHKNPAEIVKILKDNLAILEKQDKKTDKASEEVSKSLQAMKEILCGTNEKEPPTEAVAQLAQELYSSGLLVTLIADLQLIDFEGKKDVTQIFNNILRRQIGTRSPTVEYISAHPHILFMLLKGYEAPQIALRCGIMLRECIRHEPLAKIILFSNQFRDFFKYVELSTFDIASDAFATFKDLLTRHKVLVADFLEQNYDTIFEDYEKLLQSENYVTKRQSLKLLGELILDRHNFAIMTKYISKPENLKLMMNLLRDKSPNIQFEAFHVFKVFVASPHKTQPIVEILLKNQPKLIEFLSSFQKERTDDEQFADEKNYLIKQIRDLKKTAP

SCGB2A2-Mammaglobin-A = SCGB2A2-Mammaglobin-A (human, UniProt Q13296 19-93, limits assumed)
Sequence of SCGB2A2-Mammaglobin-A (Q13296 19-93 limits assumed): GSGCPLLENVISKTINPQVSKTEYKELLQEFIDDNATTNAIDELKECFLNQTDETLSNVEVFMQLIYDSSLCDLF

[11] = target: FTH1-Ferritin heavy chain (human, UniProt P02794 1-183)
Sequence of FTH1-Ferritin heavy chain (P02794 whole entry): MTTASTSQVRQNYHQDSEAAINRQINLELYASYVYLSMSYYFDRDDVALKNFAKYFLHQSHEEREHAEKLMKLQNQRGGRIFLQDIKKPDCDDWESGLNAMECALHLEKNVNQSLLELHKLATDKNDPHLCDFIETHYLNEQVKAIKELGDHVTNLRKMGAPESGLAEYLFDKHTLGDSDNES

[12] = target: T10, SSR4-signal sequence receptor, delta (translocon-associated protein delta) (SSR4) (human, UniProt P51571 24-173, limits assumed)
T10 sequence (looked up): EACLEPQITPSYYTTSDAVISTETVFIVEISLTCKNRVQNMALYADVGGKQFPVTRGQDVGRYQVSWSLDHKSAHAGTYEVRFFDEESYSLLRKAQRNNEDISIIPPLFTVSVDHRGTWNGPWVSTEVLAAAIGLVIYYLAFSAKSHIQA

GST Average SNR [1]: 1.4 | GST Average SNR [2]: 1.23 | GST Average SNR [3]: 0.966 | GST Average SNR (CTXN1-cortexin 1 (CTXN1)): 1 | GST Average SNR [4]: 0.742 | GST Average SNR [5]: 0.575 | GST Average SNR [6]: 0.377 | GST Average SNR [7]: 1.16 | GST Average SNR [8]: 0.26 | GST Average SNR [9]: 0.402 | GST Average SNR [10]: 0.182 | GST Average SNR (SCGB2A2-Mammaglobin-A): 0.983 | GST Average SNR [11]: 0.815 | GST Average SNR [12]: 1.33
B1: 3× Flag-3×MBT (designed binder)
chain: EEWSSSQPATGEKKECWSWESYLEEQKAITAPVSLFQDSQAVTHNKNGFKLGMKLEGIDPQHPSMYFILTVAEVCGYRLRLHFDGYSECHDFWVNANSPDIHPAGWFEKTGHKLQPPKGYKEEEFSWSQYLRSTRAQAAPKHLFVSQSHSPPPLGFQVGMKLEAVDRMNPSLVCVASVTDVVDSRFLVHFDNWDDTYDYWCDPSSPYIHPVGWCQKQGKPLTPPQDYPDPDNFCWEKYLEETGASAVPTWAFKVRPPHSFLVNMKLEAVDRRNPALIRVASVEDVEDHRIKIHFDGWSHGYDFWIDADHPDIHPAGWCSKTGHPLQPPLGPREPSSASPGG
notes: also called Flag-tagged 3×MBT; 3xFlag-3xMBT; not shown: made by PreScission cleavage of GST-3× Flag-3×MBT

Source: US20140274782A1 (Stanford University, published 2014)
